The labels stand for the following.
B1: LINE1-full (parent)
chain: UACGUAGGUGGUUUUCCCCUGAUAGUGCUAAGGGGGCCUGGAAGUUUGGACUGGGCAGAGCUCAACACAGCGUGGCAAAGUGGCUGUGGCUAGACUGCCUCUCUGGAUUCCUCGUCACUCAGCAGGGCAUCUCUGAGAGAAAUGCC

The series covers variants of B1. The experiment in a line: self-cleavage, relative activity (ratio to wild type); higher = more cleavage; in vitro, sequencing; the parent is a self-cleaving ribozyme.
Consider A6G A31G, for which the self-cleavage came to 0.66.
On to A6U G54U, for which the self-cleavage stood at 0.94.
In the case of A6U A136G it was 1.33; in that of U5C A138U, 1.58; in that of U5C A138G, 1.18.
The result for A6G C145U reads 1.64.
On to U5A A65U, for which the self-cleavage amounted to 0.26.
In the case of U5A A65G it was 0.08.
For the variant G4C U100C, the self-cleavage is 1.81.
Regarding A6G G137U, the self-cleavage came to 0.81.
The result for A6G U100C reads 0.87; that for U5C G41U, 1.03; that for G4C U112C, 1.42.
In the case of G4U A129G it was 1.07; in that of U5A A141G, 1.23; in that of G4C U85C, 0.13.
As for A6U G126U, the self-cleavage amounted to 1.16.
For the variant A6U G126A, the self-cleavage was 1.8.
On to U5A G125U, for which the self-cleavage worked out at 0.15.
The result for A6G U130A reads 1.18; that for U5C A129C, 1.69.
On to U5C A129U, for which the self-cleavage turned out to be 1.05.
In the case of G4U A69G, the self-cleavage was found to be 0.32.
As to U5C U52G, the self-cleavage was 1.23.
In the case of U5C U52C it was 1.23; in that of U5C U52A, 1.02.
As for A6U G105U, the self-cleavage stood at 1.71.
Turning to U5C C37U, the self-cleavage stood at 1.02.
Consider U5C U96C, for which the self-cleavage was found to be 0.26.
In the case of U5C U96A it was 0.12.
As to U5C G40A, the self-cleavage came to 0.42.
In the case of A6U G55U it was 0.4; in that of U5A A42G, 1.15; in that of A6G U87A, 0.17.
In the case of G4U A142G it was 1.46; in that of U5A A140G, 0.88.
The result for A6G A22U reads 1.11; that for G7A A142G, 1.59; that for U5C C76U, 1.88.
As to G7A A30U, the self-cleavage worked out at 0.92.
Consider G4A U112C, for which the self-cleavage was found to be 1.31.
In the case of U5C U119C it was 1.41; in that of G7A C18U, 1.59; in that of U5C U13C, 0.87.
On to G4A U45C, for which the self-cleavage was found to be 0.57.
In the case of A6G G7U it was 1.33; in that of A6G G7A, 0.43.
In the case of A6G A57G, the self-cleavage came out at 0.64.
In the case of A6G A57U it was 0.42; in that of G7A U13C, 0.81; in that of U5A U9A, 0.
In the case of A6G U115C it was 0.7; in that of U5C U143C, 0.11.
For the variant U5C G127C, the self-cleavage worked out at 1.12.
The result for G4A U39C reads 1.31.
As to U5A U87A, the self-cleavage was 0.15.
Consider A6G U23G, for which the self-cleavage is 0.85.
With A6U U132C, the self-cleavage was found to be 1.33.
The result for A6U U81C reads 1.06; that for A6U G114A, 0.
As to G7A C71A, the self-cleavage amounted to 0.29.
On to U5A U13C, for which the self-cleavage worked out at 0.99.
Take A6G A124G: the self-cleavage came out at 0.38.
On to A6G U91C, for which the self-cleavage stood at 0.51.
In the case of U5A C90G it was 0.09; in that of U5C G48A, 0.45; in that of U5C G74A, 1.19.
Consider G4A U85A, for which the self-cleavage came out at 0.04.
As for U5A U130C, the self-cleavage was 0.96.
For the variant G4A U87A, the self-cleavage came out at 0.12.
U5G A141G: the self-cleavage was determined as 0.49.
Consider A6U U85C, for which the self-cleavage was 0.4.
As to A6G U104C, the self-cleavage stood at 1.23.
In the case of U5C U130A it was 0.77.
The result for G4C U91A reads 0.75.
With A6G C98U, the self-cleavage was 0.42.
Consider A6G A138U, for which the self-cleavage amounted to 0.67.
For A6G A138G, the self-cleavage is 1.11.
As to G4A U81C, the self-cleavage amounted to 1.44.
In the case of G7A A129U it was 1.21; in that of U5C U47A, 0.92; in that of U5C U47C, 0.67.
In the case of G4U U96A it was 0.09; in that of G4C A140G, 1.19.
The result for A6C C113U reads 1.35.
Turning to U5C C111U, the self-cleavage came to 0.85.
On to U5A G34U, for which the self-cleavage turned out to be 0.88.
With U5C A141G, the self-cleavage worked out at 0.92.
In the case of G7A A138G it was 1.37; in that of U5C U62A, 0.
Take U5G U112A: the self-cleavage stood at 0.
As to A6U A121G, the self-cleavage turned out to be 0.87.
The result for U5G A50U reads 0.38.
The result for A6G A30G reads 1.14.
The result for U5G G34C reads 0.94; that for U5A A129U, 1.47.
As for U5C G137A, the self-cleavage is 1.38.
Regarding G7A C111U, the self-cleavage was found to be 0.35.
In the case of A6U G32U it was 0.54; in that of U5C A142G, 1.15.
A6U U87G: the self-cleavage was found to be 0.12.
Turning to A6U U52C, the self-cleavage came to 1.02.
In the case of U5C A67G, the self-cleavage is 0.67.
As for U5C U112C, the self-cleavage amounted to 0.99.
In the case of U5C U112A it was 1.15; in that of U5A U100C, 0.82; in that of U5A U100A, 0.51.
In the case of U5A U62C, the self-cleavage was 0.05.
As for A6U U46A, the self-cleavage is 1.07.
Consider U5A G36C, for which the self-cleavage worked out at 1.16.
On to U5A U47A, for which the self-cleavage is 0.59.
Take U5C U104C: the self-cleavage worked out at 1.11.
Regarding A6G C18U, the self-cleavage is 0.59.
For the variant A6U C133A, the self-cleavage is 0.49.
On to A6C A121U, for which the self-cleavage was found to be 1.18.
As for U5C A92G, the self-cleavage stood at 0.
In the case of U5A C61A, the self-cleavage came out at 0.03.
The result for U5C U109A reads 0.74; that for A6G G40A, 0.84.
In the case of G4C A22G it was 0.99.
As to A6G U85C, the self-cleavage was found to be 0.2.
In the case of A6G U85G it was 0; in that of A6G U85A, 0.
For A6U U134A, the self-cleavage is 1.28.
The result for A6U C71U reads 1.15; that for A6U U12G, 1.21.
The result for A6U U12A reads 0.84.
In the case of U5C A6G it was 0.65; in that of U5C A6U, 1.09; in that of A6U U109A, 0.99.
A6G U52C: the self-cleavage came out at 0.72.
In the case of A6U A59C it was 0.74.
In the case of A6U A59G it was 0.11; in that of G4U U13C, 0.93.
With U5A U132C, the self-cleavage was found to be 1.25.
With A6U C18U, the self-cleavage came to 0.84.
With A6U A69G, the self-cleavage amounted to 0.89.
In the case of U5C G8A, the self-cleavage came to 0.24.
In the case of A6G A24U it was 1.21; in that of A6G A24G, 1.21.
The result for A6U U9A reads 1.56; that for A6U U9C, 0.36; that for A6G U81C, 1.78.
On to G4U U45A, for which the self-cleavage worked out at 1.04.
The result for A6C A57G reads 0.92; that for A6C A141G, 1.71.
In the case of U5A A67U it was 0.14; in that of U5C U15A, 0.63; in that of G4C U132C, 0.97.
On to A6G A94U, for which the self-cleavage turned out to be 0.3.
The result for A6G A94G reads 0.31.
In the case of A6C U100C, the self-cleavage amounted to 0.66.
The result for A6G A64U reads 0.87; that for A6C A129U, 0.77; that for U5A U96C, 0.45.
In the case of G4A U62C it was 0; in that of U5C U26C, 1.23; in that of G7A A124G, 0.6.
For the variant G7A A124C, the self-cleavage amounted to 1.37.
The result for A6U U119C reads 0.75; that for G7A A107G, 1.22; that for U5G U119C, 1.02.
The result for U5A A138G reads 0.75.
In the case of U5A U52A it was 0.52; in that of A6U U47C, 0.8; in that of U5A C110U, 0.34.
As to G7A U26C, the self-cleavage was determined as 2.
